Our source for the Km, kcat and kcat/Km values is PMC6595629, “Continuous Culture Adaptation of Methylobacterium extorquens AM1 and TK 0001 to Very High Methanol Concentrations” (Frontiers in Microbiology, 2019).

The target of data set [1] is T1, MetY (O-acetyl-L-homoserine sulfhydrylase) (Methylorubrum extorquens, UniProt C5ARH8).
T1 construct: full-length, N-terminal 6xHis tag, modified pET22b(+), E. coli BL21(DE3), purified; printed primers translate to N-terminus MHHHHHHSDQTPASVY and C-terminus TLARAA
Nature of the data set: coupled acetic acid assay (NADH oxidation, […] nm). It is filed as biochemical. The note with it: pH 7.4, room temperature; co-substrate O-acetyl-L-homoserine saturating.

Substrate in the data set “purified protein”: CC(=O)OCC[C@H](N)C(=O)O
Nature of the data set: purified protein. The following applies: pH 7.4, room temperature, other substrate saturating (sulfide or methanol; which one is not given). It is filed as biochemical, Methylorubrum extorquens.

With `S` [Sodium sulfide], the Michaelis constant (Km) in data set [1] was 800 ± 200 µM.

B1: MetY (O-acetyl-L-homoserine sulfhydrylase) (Methylorubrum extorquens AM1) (protein)
chain: MTDRQPGFNTLAIHAGATPDPATGARATPIYQTTSFVFDDVDHAASLFGLQAFGNIYTRITNPTNAVLEERIAALEGGTAALAVASGHAAEFLTLHALMQPGDEFIAANKLYGGSINQFNHSYKNFGWQVVWADTDDPDSFERAITPRTKAIFCESIANPGGVITDIAALSVIAKRHNIPLIVDNTMATPYLIKPFEHGADIVVHSATKFLGGHGNSIGGLIVDGGTFQWQGDARYPMLSEPRPEYAGMVLAETFGNFGFAIAVRVLSLRDLGPSLSPFNAFLILNGIETLPLRMQRHSDNALKVATFLKNHANVDWVSYPGLESDRYHALAQRYTPKGAGAVFTFGLKGGYEAGVKLVSNLQLFSHLANIGDTRSLVIHPASTTHRQLTDEQKRAAGAGPEVVRLSIGIEDAQDLIDDLDAALRA
notes: full-length, N-terminal 6xHis tag, modified pET22b(+), E. coli BL21(DE3), purified; printed primers translate to N-terminus … and C-terminus TLARAA
Consider B1, for which, in the data set “purified protein”, the Km was 1300 ± 200 µM, the kcat was 2.32 ± 0.12 s⁻¹ and the catalytic efficiency (kcat/Km) was 1850 M⁻¹ s⁻¹.

Usually Km stands for the concentration of substrate that gives half-maximal velocity. One may read the kcat as the maximal rate divided by the concentration of active sites. The kcat/Km is the turnover number divided by the Michaelis constant.
